Measurements taken from patent US20240116985A1 (published 2024).
Starred links: 1 amine or outer side, 2 acyl side, 3 side chain; linkers in the order of their positions; H or OH if unused. Positions of bridges follow the written chain, without caps; N, C: chain ends. Non-standard residues stand in square brackets, D forms with d. Primed or numbered codes have the meaning given here. PyrS2″ = (S)-3-amino-1-((pent-4-en-1-yloxy)carbonyl)pyrrolidine-3-carboxylic acid (stapling residue), C=CCCCOC(=O)N1CC[C@@](N[*:1])(C(=O)[*:2])C1; (TfePpz)GlnR = (S)-2-amino-5-oxo-5-(4-(2,2,2-trifluoroethyl)piperazin-1-yl)pentanoic acid, O=C(CC[C@H](N[*:1])C(=O)[*:2])N1CCN(CC(F)(F)F)CC1; B5(4) = 2,2-bis(4-pentenyl)glycine = 2-amino-2-(pent-4-en-1-yl)hept-6-enoic acid (stitching residue), C=CCCCC(CCCC=C)(N[*:1])C(=O)[*:2]; B5(5) = 2,2-bis(4-pentenyl)glycine, 2-amino-2-(pent-4-en-1-yl)hept-6-enoic acid (stitching residue), C=CCCCC(CCCC=C)(N[*:1])C(=O)[*:2]; TfeGA = (S)-2-amino-3-((carboxymethyl)(2,2,2-trifluoroethyl)amino)propanoic acid, O=C([C@H](CN(CC(=O)[*:3])CC(F)(F)F)N[*:1])[*:2]; B5(12) = 2-amino-2-(pent-4-en-1-yl)hept-6-enoic acid (two olefin side chains), C=CCCCC(CCCC=C)(N[*:1])C(=O)[*:2]; B5(19) = 2-amino-2-(pent-4-en-1-yl)hept-6-enoic acid (bis(4-pentenyl)glycine), C=CCCCC(CCCC=C)(N[*:1])C(=O)[*:2]; Phe(3-CONH2) = NC(=O)c1cccc(C[C@H](N)C(=O)O)c1; Phe(3-COOH) = N[C@@H](Cc1cccc(C(=O)O)c1)C(=O)O; Bta = N[C@@H](Cc1csc2ccccc12)C(=O)O; Lys(iPr) = CC(C)NCCCC[C@H](N)C(=O)O; αAllylPro = C=CC[C@@]1(C(=O)O)CCCN1; tBuAla = CC(C)(C)C[C@H](N)C(=O)O; 3Thi = N[C@@H](Cc1ccsc1)C(=O)O; Cha = N[C@@H](CC1CCCCC1)C(=O)O; PyrS2(4) = not defined here; TfeGA″ = not defined here; hSer = N[C@@H](CCO)C(=O)O; Nle = CCCC[C@H](N)C(=O)O; Aib = CC(C)(N)C(=O)O

T1: B-cat-Halo (UniProt P35222 1-781)
T1 sequence (looked up): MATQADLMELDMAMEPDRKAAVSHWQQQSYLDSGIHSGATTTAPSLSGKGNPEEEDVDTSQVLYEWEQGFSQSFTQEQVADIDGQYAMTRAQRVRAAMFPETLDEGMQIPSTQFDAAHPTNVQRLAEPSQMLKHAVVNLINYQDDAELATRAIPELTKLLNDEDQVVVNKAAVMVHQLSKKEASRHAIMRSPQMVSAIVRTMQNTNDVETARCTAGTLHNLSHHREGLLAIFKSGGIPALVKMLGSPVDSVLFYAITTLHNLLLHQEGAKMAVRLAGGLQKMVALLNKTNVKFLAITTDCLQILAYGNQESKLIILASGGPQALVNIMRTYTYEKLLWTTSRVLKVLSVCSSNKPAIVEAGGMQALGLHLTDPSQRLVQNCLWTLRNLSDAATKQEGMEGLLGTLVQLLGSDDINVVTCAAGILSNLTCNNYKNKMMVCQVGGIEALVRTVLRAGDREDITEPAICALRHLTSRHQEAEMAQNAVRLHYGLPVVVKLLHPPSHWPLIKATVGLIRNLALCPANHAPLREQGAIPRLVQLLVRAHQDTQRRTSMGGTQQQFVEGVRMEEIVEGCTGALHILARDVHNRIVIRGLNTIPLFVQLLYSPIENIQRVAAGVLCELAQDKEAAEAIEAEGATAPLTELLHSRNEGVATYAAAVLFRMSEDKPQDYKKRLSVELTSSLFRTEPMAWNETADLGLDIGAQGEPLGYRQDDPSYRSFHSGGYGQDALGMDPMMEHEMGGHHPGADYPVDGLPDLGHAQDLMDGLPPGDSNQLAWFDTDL

T2: B-cat-Halo (beta-catenin HaloTag construct transfected into HEK293 cells) (UniProt P35222 1-781)
T2 sequence (looked up): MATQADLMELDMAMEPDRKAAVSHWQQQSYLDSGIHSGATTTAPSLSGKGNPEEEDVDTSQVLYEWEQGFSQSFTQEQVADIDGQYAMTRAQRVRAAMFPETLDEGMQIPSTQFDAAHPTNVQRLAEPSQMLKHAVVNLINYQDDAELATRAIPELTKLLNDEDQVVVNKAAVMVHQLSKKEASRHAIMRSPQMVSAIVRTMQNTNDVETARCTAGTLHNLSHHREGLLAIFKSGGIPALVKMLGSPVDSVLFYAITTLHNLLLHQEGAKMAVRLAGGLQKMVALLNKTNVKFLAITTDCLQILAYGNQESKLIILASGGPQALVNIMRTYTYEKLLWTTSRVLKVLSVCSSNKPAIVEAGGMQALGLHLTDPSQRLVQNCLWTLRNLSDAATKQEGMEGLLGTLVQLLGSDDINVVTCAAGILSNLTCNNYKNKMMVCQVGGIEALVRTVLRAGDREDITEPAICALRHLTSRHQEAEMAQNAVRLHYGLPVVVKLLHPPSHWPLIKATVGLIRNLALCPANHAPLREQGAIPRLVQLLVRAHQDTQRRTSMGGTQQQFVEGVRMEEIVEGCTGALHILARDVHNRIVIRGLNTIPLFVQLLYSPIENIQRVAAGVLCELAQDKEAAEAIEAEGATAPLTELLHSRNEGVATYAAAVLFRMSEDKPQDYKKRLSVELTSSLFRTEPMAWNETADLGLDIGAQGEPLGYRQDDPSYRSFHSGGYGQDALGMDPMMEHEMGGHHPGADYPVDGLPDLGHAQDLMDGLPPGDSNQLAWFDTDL


target: T1, B-cat-Halo; assay: cell-based or functional assay

Row | Binder | NanoBRET Abs IC50
1 | Ac-[αAllylPro]D[tBuAla][B5(5)]D[TfeGA]AAFL[PyrS2″][3Thi][Bta]L-NH2 (staple 1-4, 4-11) [I-1748] | 20.2 µM
2 | Ac-[αAllylPro]D[tBuAla][B5(5)]D[TfeGA][Lys(iPr)]AFT[PyrS2″][3Thi][Bta]V-NH2 (staple 1-4, 4-11; also: -CH=CH- in each staple reduced to -CH2-CH2-) [I-1770] | > 20 µM
3 | Ac-[αAllylPro]D[tBuAla][B5(5)]D[TfeGA]AAFL[PyrS2″][3Thi][Bta]F-NH2 (staple 1-4, 4-11) [I-1750] | 23.7 µM
4 | Ac-[αAllylPro]D[tBuAla][B5(5)]D[TfeGA][Lys(iPr)]AFL[PyrS2″][3Thi][Bta]L-NH2 (staple 1-4, 4-11) [I-1759] | > 20 µM
5 | Ac-[αAllylPro]D[tBuAla][B5(5)]D[TfeGA][Lys(iPr)]AFL[PyrS2″][3Thi][Bta]V-NH2 (staple 1-4, 4-11) [I-1763] | > 20 µM
6 | Ac-[αAllylPro]D[tBuAla][B5(5)]D[TfeGA″][Lys(iPr)]AFT[PyrS2(4)][3Thi][Bta]F-NH2 (staple 1-4, 4-11; not fully specified; reading uncertain) [I-1762] | > 20 µM

target: T2, B-cat-Halo (beta-catenin HaloTag …); assay: cell-based or functional assay

Row | Binder | NanoBRET Abs IC50
7 | Ac-[αAllylPro]D[tBuAla][B5(12)]D[Phe(3-COOH)][Nle]AFL[PyrS2(4)][3Thi][Bta]F-NH2 (staple 1-4, 4-11; not fully specified; printed as Ac-PL3-Asp-Npg-B5-Asp-3COOHF-nLeu-Ala-Phe-Leu-PyrS2-3Thi-BztA-Phe-NH2; reading uncertain) [I-1913] | 17.5 µM
8 | Ac-[αAllylPro]N[Cha][B5(19)]DQ[Lys(iPr)]AFN[PyrS2″][Phe(3-CONH2)][Bta][hSer]-NH2 (staple 1-4, 4-11) [I-1929] | > 20 µM
9 | Ac-[αAllylPro]D[tBuAla][B5(12)]D[Phe(3-COOH)][Aib]AFL[PyrS2(4)][3Thi][Bta]F-NH2 (staple 1-4, 4-11; not fully specified; printed as Ac-PL3-Asp-Npg-B5-Asp-3COOHF-Aib-Ala-Phe-Leu-PyrS2-3Thi-BztA-Phe-NH2; reading uncertain) [I-1914] | 6.4 µM
10 | Ac-[αAllylPro]D[tBuAla][B5(4)]D[Phe(3-COOH)]KAFL[PyrS2(4)][3Thi][Bta]A-NH2 (staple 1-4, 4-11; not fully specified; printed as Ac-PL3-Asp-Npg-B5-Asp-3COOHF-Lys-Ala-Phe-Leu-PyrS2-3Thi-BztA-Ala-NH2; reading uncertain) [I-1917] | 37.7 µM
11 | Ac-[αAllylPro]D[tBuAla][B5(4)]D[Phe(3-COOH)][Lys(iPr)]AFL[PyrS2(4)][3Thi][Bta]A-NH2 (staple 1-4, 4-11; not fully specified; printed as Ac-PL3-Asp-Npg-B5-Asp-3COOHF-iPrLys-Ala-Phe-Leu-PyrS2-3Thi-BztA-Ala-NH2; reading uncertain) [I-1915] | 20.2 µM
12 | Ac-[αAllylPro]D[tBuAla][B5(4)]D[Phe(3-COOH)]HAFL[PyrS2(4)][3Thi][Bta]A-NH2 (staple 1-4, 4-11; not fully specified; printed as Ac-PL3-Asp-Npg-B5-Asp-3COOHF-His-Ala-Phe-Leu-PyrS2-3Thi-BztA-Ala-NH2; reading uncertain) [I-1916] | 9.2 µM
13 | Ac-[αAllylPro]D[tBuAla][B5(19)]D[TfeGA]AAF[(TfePpz)GlnR][PyrS2″][3Thi][Bta]Q-NH2 (staple 1-4, 4-11) [I-1935] | 7.1 µM
14 | Ac-[αAllylPro]D[tBuAla][B5(4)]D[Phe(3-COOH)][Nle]AFL[PyrS2(4)][3Thi][Bta]A-NH2 (staple 1-4, 4-11; not fully specified; printed as Ac-PL3-Asp-Npg-B5-Asp-3COOHF-nLeu-Ala-Phe-Leu-PyrS2-3Thi-BztA-Ala-NH2; reading uncertain) [I-1919] | 4.7 µM
